This is an account of results in patent US20140162952A1 (ONCOTHERAPY SCIENCE, published 2014).

Positions count from the first letter of the chain named. In names and notes the source's numbering stands. Where no end group is shown, it is not given here.

The Kd is the free concentration of one partner at which half of the binding sites on the other are occupied at equilibrium, for simple one-to-one binding.

Experiment [1] addresses T1, 6×His-tagged recombinant PHB2/REA protein (human, UniProt Q99623 77-244).
T1 construct: Expressed in Escherichia coli BL21 star (DE3); also called His-PHB2/REA; 6×His-PHB2/REA; not shown: hexahistidine tag, thioredoxin (TrxA) and TEV protease cut site at the amino terminal (pTAT6 vector)
Briefly: fluorescence correlation spectroscopy, 10 nM FITC-tagged ERAP1-scramble peptide with rising 6xHis-PHB2/REA.

The target in experiment [2] is T1, 6×His-tagged recombinant PHB2/REA …. Briefly: Ni-resin pull-down of 10 µg His-PHB2 mixed with lysate of Flag-tagged ERAP1 expressing cells and HA-peptide; blot for Peptide.
In experiment [3] the target is T2, inherent ERAP1 (Estrogen Receptor Activity-regulated Protein 1) (human, UniProt Q5TH69 1-2177).
T2 construct: Endogenous protein immunoprecipitated from cell lysates; also called ERAP1 polypeptide; BIG3
Put plainly: co-IP from cytoplasm and nuclear fractions of KPL-3C cells, 24 h, 10 nM E2 and/or 10 µM HA-tagged ERAP1-peptide; blot anti-HA.

The target in experiment [4] is T1, 6×His-tagged recombinant PHB2/REA …. Briefly: Biacore 3000, 6×His-tagged recombinant PHB2/REA immobilized on a CM5 chip, peptide injected; Biacore; His-PHB2/REA on the chip, HA-tagged peptide injected. A general note: SPR reads the build-up and loss of mass on a sensor chip optically.
The target of experiment [5] is T3, HA-PHB2 (HA-tagged PHB2 construct) (human, UniProt Q99623 1-299, limits assumed).
T3 construct: Expressed by transfection in COS-7 or HEK293T cells; also called PHB2/REA construct; HA-tagged PHB2/REA (WT); not shown: HA tag
T3 sequence (Q99623 whole entry): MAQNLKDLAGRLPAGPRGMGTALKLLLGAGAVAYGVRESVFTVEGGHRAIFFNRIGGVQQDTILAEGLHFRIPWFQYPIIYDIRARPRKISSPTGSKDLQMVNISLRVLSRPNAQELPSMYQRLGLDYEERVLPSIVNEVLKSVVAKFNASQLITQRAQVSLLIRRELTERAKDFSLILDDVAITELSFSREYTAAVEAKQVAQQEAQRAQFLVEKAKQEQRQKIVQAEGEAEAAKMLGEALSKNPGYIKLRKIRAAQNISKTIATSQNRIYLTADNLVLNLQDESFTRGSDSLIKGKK
Briefly: COS-7 co-transfection with the PHB2/REA construct, IP and immunoblot.

The target of experiment [6] is T3, HA-PHB2 (HA-tagged PHB2 construct). Put plainly: co-immunoprecipitation from COS-7 cells, IP anti-FLAG, blot anti-HA.
Experiment [7] has the same target. Briefly: co-immunoprecipitation from COS-7 cells, IP anti-FLAG and IP anti-HA.
The target is the same in experiment [8]. Briefly: co-immunoprecipitation from COS-7 cells, IP anti-HA, blot anti-FLAG.
For another experiment, the target named is T4, NcoR (human, UniProt O75376 1-2440, limits assumed).
T4 construct: also called transcription coupling suppression factor NcoR
T4 sequence (O75376 whole entry): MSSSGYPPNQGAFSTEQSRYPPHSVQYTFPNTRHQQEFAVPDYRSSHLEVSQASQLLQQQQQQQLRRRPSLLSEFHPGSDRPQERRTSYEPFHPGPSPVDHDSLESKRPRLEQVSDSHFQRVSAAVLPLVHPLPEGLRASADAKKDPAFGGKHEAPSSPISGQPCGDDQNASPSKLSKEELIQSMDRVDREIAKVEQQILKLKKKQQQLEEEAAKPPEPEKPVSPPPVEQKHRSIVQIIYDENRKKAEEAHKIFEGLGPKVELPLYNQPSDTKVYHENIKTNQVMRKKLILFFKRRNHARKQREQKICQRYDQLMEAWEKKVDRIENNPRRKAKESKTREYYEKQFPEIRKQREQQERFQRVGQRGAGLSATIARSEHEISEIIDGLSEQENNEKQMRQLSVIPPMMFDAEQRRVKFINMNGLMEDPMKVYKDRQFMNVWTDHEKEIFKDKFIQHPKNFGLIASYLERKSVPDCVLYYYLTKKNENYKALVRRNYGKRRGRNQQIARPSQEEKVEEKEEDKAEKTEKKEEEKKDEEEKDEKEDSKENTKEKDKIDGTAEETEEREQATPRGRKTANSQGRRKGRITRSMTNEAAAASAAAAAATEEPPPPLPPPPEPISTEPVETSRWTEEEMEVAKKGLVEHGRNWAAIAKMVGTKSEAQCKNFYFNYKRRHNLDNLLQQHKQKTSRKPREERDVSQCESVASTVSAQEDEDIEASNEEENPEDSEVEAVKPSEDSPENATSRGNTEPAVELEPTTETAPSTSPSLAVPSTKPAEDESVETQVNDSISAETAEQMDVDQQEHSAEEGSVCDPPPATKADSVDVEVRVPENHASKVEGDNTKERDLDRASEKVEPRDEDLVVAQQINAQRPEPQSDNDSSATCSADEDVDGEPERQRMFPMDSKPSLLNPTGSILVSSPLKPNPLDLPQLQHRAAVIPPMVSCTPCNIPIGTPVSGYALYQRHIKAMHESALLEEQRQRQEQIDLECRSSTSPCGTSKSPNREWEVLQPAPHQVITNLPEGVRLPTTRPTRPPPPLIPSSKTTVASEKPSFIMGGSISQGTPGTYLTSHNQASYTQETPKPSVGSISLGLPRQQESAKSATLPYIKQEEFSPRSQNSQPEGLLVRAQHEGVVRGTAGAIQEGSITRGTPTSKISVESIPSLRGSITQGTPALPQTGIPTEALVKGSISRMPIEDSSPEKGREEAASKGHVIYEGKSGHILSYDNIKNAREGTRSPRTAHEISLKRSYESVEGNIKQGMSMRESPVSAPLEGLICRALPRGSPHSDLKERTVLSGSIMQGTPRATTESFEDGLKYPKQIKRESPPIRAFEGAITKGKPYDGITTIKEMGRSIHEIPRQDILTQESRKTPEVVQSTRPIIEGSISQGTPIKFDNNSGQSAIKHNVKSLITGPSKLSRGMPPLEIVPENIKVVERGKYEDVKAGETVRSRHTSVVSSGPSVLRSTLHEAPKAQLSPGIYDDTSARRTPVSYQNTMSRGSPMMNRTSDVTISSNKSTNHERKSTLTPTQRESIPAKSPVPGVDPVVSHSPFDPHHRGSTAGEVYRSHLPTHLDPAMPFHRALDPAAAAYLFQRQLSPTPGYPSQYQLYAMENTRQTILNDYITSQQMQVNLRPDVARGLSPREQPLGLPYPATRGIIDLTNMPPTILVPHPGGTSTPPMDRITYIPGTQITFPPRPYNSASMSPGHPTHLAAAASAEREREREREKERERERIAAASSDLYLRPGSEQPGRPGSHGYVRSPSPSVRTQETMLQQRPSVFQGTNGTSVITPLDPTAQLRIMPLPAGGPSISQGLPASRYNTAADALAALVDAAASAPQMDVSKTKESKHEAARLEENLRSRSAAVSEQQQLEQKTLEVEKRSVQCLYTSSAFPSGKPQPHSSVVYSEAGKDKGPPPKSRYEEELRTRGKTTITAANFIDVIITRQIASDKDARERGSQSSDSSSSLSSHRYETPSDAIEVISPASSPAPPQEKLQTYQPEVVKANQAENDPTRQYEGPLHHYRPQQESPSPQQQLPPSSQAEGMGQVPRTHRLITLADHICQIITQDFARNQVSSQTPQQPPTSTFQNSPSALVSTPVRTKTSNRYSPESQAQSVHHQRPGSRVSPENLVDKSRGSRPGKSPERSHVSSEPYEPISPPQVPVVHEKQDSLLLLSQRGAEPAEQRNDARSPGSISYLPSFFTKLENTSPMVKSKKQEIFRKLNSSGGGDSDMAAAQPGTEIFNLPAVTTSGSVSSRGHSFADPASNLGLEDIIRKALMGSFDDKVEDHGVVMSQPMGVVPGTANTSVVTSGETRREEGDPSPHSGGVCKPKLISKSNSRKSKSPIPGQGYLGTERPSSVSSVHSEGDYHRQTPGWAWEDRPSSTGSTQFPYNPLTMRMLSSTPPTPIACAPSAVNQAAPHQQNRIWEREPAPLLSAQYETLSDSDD
Put plainly: co-IP from the nuclear fraction of KPL-3C cells, 24 h, 10 nM E2 and/or 10 µM Peptide.

A further experiment has as its target Her2 (human, UniProt P04626 23-1255). Put plainly: anti-ERα co-IP from the cytoplasm fraction of BT-474 cells, 24 h, 10 nM E2 and/or 10 µM Peptide.
The next experiment addresses EGFR (human, UniProt P00533 25-1210). Described as above.
The target in experiment [9] is T1, 6×His-tagged recombinant PHB2/REA …. Briefly: fluorescence correlation spectroscopy, 10 nM FITC-tagged ERAP1-peptide with rising 6xHis-PHB2/REA; same constant as the 14.4 µM of the text, in mass units.
The target is the same in experiment [10]. Put plainly: fluorescence correlation spectroscopy, 10 nM FITC-tagged peptide with His-PHB2/REA at various concentrations; fluorescence correlation spectroscopy; 10 nM FITC-tagged peptide in solution.
Experiment [11] concerns the target inherent PHB2/REA (prohibitin 2 / Repressor of Estrogen Activity) (human, UniProt Q99623 2-299, limits assumed). Briefly: cell-based or functional assay.

T1 sequence (Q99623 77-244): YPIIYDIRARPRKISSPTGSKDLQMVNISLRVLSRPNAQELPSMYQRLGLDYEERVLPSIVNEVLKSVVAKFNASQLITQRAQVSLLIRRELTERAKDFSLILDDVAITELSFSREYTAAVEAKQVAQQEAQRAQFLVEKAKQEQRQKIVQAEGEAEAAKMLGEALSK
inherent PHB2/REA (prohibitin 2 / Repressor of Estrogen Activity), sequence (Q99623 2-299 limits assumed): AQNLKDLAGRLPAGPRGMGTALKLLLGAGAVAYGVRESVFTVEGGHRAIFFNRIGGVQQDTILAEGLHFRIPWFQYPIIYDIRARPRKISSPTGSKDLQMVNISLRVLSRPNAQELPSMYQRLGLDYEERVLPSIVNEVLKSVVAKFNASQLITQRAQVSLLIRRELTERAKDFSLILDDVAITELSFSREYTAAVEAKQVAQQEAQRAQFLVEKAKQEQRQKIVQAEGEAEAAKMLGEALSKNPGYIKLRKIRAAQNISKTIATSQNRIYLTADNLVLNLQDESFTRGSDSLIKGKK

B1: scrPeptide (peptide)
peptide: DRQLQLSTLQRML
modifications: also: FITC tag, position not given here
notes: also called FITC-tagged ERAP1-scramble peptide
Take B1: the binding result in experiment [1] is recorded as “no binding (tested: about 1.25 mg/mL)”.

B2: Scramble (HA-Peptide) (peptide)
single chain: DRQLQLSTLQRML
notes: it is detected in the Peptide blot, so it carries the tag; also called HA-tagged ERAP1-scramble peptide
In the case of B2, in [2], the binding result was “no binding (tested: 100 µM)”.

B3: HA-tagged ERAP1-peptide (peptide)
peptide: RRRRRRRRRRRQMLSDLTLQLRQR
notes: ERAP1-peptide to which an HA tag was added; also called ERAP1-HA-peptide; HA tag-added peptide; not shown: HA tag
With B3, the binding result in experiment [3] is reported as “no binding (tested: 10 µM)”. In addition, the equilibrium dissociation constant (Kd) in experiment [4] amounted to 18.9 µM.

B4: ERAP1 alanine mutant of Q165 and D169 (Q165A, D169A) (other)
chain: MEEILRKLQKEASGSKYKAIKESCTWALETLGGLDTIVKIPPHVLREKCLLPLQLALESKNVKLAQHALAGMQKLLSEERFVSMETDSDEKQLLNQILNAVKVTPSLNEDLQVEVMKVLLCITYTPTFDLNGSAVLKIAEVCIETYISSCHQRSINTAVRATLSAMLSALTLQLRQRQENTIIENPDVPQDFGNQGSTVESLCDDVVSVLTVLCEKLQAAINDSQQLQLLYLECILSVLSSSSSSMHLHRRFTDLIWKNLCPALIVILGNPIHDKTITSAHTSSTSTSLESDSASPGVSDHGRGSGCSCTAPALSGPVARTIYYIAAELVRLVGSVDSMKPVLQSLYHRVLLYPPPQHRVEAIKIMKEILGSPQRLCDLAGPSSTESESRKRSISKRKSHLDLLKLIMDGMTEACIKGGIEACYAAVSCVCTLL
notes: not shown: Flag tag
Regarding B4, the “coprecipitation band, ratio when that with ERAP1 (1-434 aa) is designated as 100” value in experiment [5] turned out to be 12%.

B5: ERAP1 mutant (alanine mutant of Q165, D169 and Q173) (other)
chain: B4 chain with Q173A
notes: not shown: Flag tag
B5: the “coprecipitation band, ratio when that with ERAP1 (1-434 aa) is designated as 100” value in [5] came to 2%. Besides, the “ratio of the coprecipitated band (ERAP1 1-434 = 100)” value in [6] is 1. In experiment [7], the binding result is listed as “no binding”.

B6: Q173A (other)
single chain: B4 chain with A165Q, A169D, Q173A
notes: Construct named in the text, but absent from the list MOLECULES; its band ratios stand only on the sheet; also called alanine mutant of Q173 (Q173A)
For the molecule B6, the entries for the “ratio of the coprecipitated band (ERAP1 1-434 = 100)” value in experiment [6] and in experiment [8] were 79 and 52, respectively.

B7: estrogen receptor α (ERα) (receptor)
chain: MTMTLHTKASGMALLHQIQGNELEPLNRPQLKIPLERPLGEVYLDSSKPAVYNYPEGAAYEFNAAAAANAQVYGQTGLPYGPGSEAAAFGSNGLGGFPPLNSVSPSPLMLLHPPPQLSPFLQPHGQQVPYYLENEPSGYTVREAGPPAFYRPNSDNRRQGGRERLASTNDKGSMAMESAKETRYCAVCNDYASGYHYGVWSCEGCKAFFKRSIQGHNDYMCPATNQCTIDKNRRKSCQACRLRKCYEVGMMKGGIRKDRRGGRMLKHKRQRDDGEGRGEVGSAGDMRAANLWPSPLMIKRSKKNSLALSLTADQMVSALLDAEPPILYSEYDPTRPFSEASMMGLLTNLADRELVHMINWAKRVPGFVDLTLHDQVHLLECAWLEILMIGLVWRSMEHPGKLLFAPNLLLDRNQGKCVEGMVEIFDMLLATSSRFRMMNLQGEEFVCLKSIILLNSGVYTFLSSTLKSLEEKDHIHRVLDKITDTLIHLMAKAGLTLQQQHQRLAQLLLILSHIRHMSNKGMEHLYSMKCKNVVPLYDLLLEMLDAHRLHAPTSRGGASVEETDQSHLATAGSTSSHSLQKYYITGEAEGFPATV
notes: Immunoprecipitated with anti-ERα antibody from cytoplasm or nuclear fractions
As to B7, the binding result with NcoR, with Her2 and in the experiment with EGFR was “binds” in each case.

B8: FITC-tagged ERAP1-peptide (peptide)
peptide: RRRRRRRRRRRQMLSDLTLQLRQR
modifications: also: FITC tag, position not given here
As to B8, the dissociation constant Kd in [9] was determined as 480 µg/mL; in experiment [10], 14.4 µM.

B9: ERAP1-peptide (11R-bound dominant negative peptide, ERAP1 165-177) (peptide)
peptide: RRRRRRRRRRRQMLSDLTLQLRQR
Take B9: the “IC50 of suppression effect for the cell proliferation in MCF-7 cells for 24 hours” value in experiment [11] worked out at 2.18 µM.
